How the values were obtained:
[1] = system: peripheral blood mononuclear cells (PBMCs); assay: Limiting dilution competitive transplants and secondary transplants of mobilized grafts; assay type: in vivo; conditions: secondarily transplanted mice; n=16 mice/group, P<0.01
CD34+ cells = conditions: cited from earlier work

B1: G-CSF: hematopoietic growth factor used clinically to mobilize HSC and HPC; comparator regimen (protein, UniProt P09919 31-207, looked up)
Granulocyte …: TPLGPASSLPQSFLLKCLEQVRKIQGDGAALQEKLVSECATYKLCHPEELVLLGHSLGIPWAPLSSCPSQALQLAGCLSQLHSGLFLYQGLLQALEGISPELGPTLDTLQLDVADFATTIWQQMEELGMAPALQPTQGAMPAFASAFQRRAGGVLVASHLQSFLEVSYRVLRHLAQP
[1]
  competitiveness of graft as measured by contribution to chimerism: remained static
CD34+ cells; autologous transplantation patients
  patients that fail to mobilize an optimal CD34+ cell dose for autologous transplantation: Up to 60%
CD34+ cells; normal, healthy donors
  poor mobilization in response to G-CSF, share of normal, healthy donors: 15%

Reference: US20190060366A1, “HIGHLY ENGRAFTABLE HEMATOPOIETIC STEM CELLS” (President and Fellows of Harvard College, priority 2016, published 2019)
